This is an account of results in the RNAGym collection of RNA variant scans (doi:10.1073/pnas.2313332121).

First the molecules themselves.
B1: TPR t1 (parent)
chain: GACCAAUCUGCCCUCAGAGCUCGAGAACAUCUUCGGAUGCAGAGGAGGCAGGCUUCGGUGGCGCGAUAGCGCCAACGUCCUCAACCUCCAAUGCAUCCCACCACAUGAUGAUGCCUGAAGAGCCUUGGUUUUUUG

Variants of B1 are the subject of the data set. In words: polymerase ribozyme fitness, log enrichment relative to wild type (log ratio); higher = more active; in vitro selection for triplet polymerase activity. In a few lines: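 PCR was used to build mutant libraries for each subunit of a heterodimeric triplet polymerase ribozyme, which were then transcribed. A single in vitro selection round, in triplicate, used a frozen incubation at −7 °C and recovered extended constructs by gel excision, streptavidin beads and RT-PCR. Fitness is the logarithm of genotype enrichment relative to wild-type enrichment, averaged over replicates with inverse-variance weights. The logarithm is base 2, and after Illumina sequencing only genotypes with ≥10 input reads and ≥1 read per output were kept.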
On to C34U U116C, for which the “polymerase ribozyme fitness (log ratio)” value is -5.7.

Take G36A C40A C53G U59C C124G: the “polymerase ribozyme fitness (log ratio)” value was -2.06.

For the variant G36C A50C G71A A118U G120A, the “polymerase ribozyme fitness (log ratio)” value was -1.49.

Take G36C A50U: the “polymerase ribozyme fitness (log ratio)” value was -1.67.

As for G36C G51C C70U U87A C94U C123U, the “polymerase ribozyme fitness (log ratio)” value is -5.76.

On to G35C C86A C101U U109C C124G, for which the “polymerase ribozyme fitness (log ratio)” value was -7.22.

On to A37U G63C C104U U116C, for which the “polymerase ribozyme fitness (log ratio)” value is -1.47.

Take A37U G44A A83C G120C U130G: the “polymerase ribozyme fitness (log ratio)” value is -1.38.

With G36U C40G U78G C97A U112G, the “polymerase ribozyme fitness (log ratio)” value was -1.61.

Consider G35A C86G, for which the “polymerase ribozyme fitness (log ratio)” value is -5.03.

Regarding A37G A121G, the “polymerase ribozyme fitness (log ratio)” value stood at 2.3.

With A37G U81G A84C, the “polymerase ribozyme fitness (log ratio)” value was -5.14.

In the case of A37U G57A A66C, the “polymerase ribozyme fitness (log ratio)” value is -4.07.

For the variant A37G C64A, the “polymerase ribozyme fitness (log ratio)” value was -6.74.

For C34G U125A, the “polymerase ribozyme fitness (log ratio)” value is -5.11.

Turning to A37U C73A, the “polymerase ribozyme fitness (log ratio)” value is -0.559.

For G36U C40U G51U A68G C72U A111U A119C G120A, the “polymerase ribozyme fitness (log ratio)” value was -8.09.

In the case of A37C C72U G120U A121C, the “polymerase ribozyme fitness (log ratio)” value came to 0.205.

As for A37U C70G C97U G117U, the “polymerase ribozyme fitness (log ratio)” value is -5.65.

Take A37U G47U C73U C101G C114U U126G: the “polymerase ribozyme fitness (log ratio)” value was -7.11.

Consider A37U C72G U78C A119U, for which the “polymerase ribozyme fitness (log ratio)” value is -1.26.

A37U A91U U130A: the “polymerase ribozyme fitness (log ratio)” value was -2.83.

On to A37U G39U C72U U125G, for which the “polymerase ribozyme fitness (log ratio)” value is -3.21.

As for C34G U55C G58A C82A C85U C88A C123U U131G, the “polymerase ribozyme fitness (log ratio)” value is -6.74.

For the variant G36U G60A C94U, the “polymerase ribozyme fitness (log ratio)” value was -1.8.

Take A37G C70U C79A: the “polymerase ribozyme fitness (log ratio)” value is -3.05.

Turning to G36U A50C A84U, the “polymerase ribozyme fitness (log ratio)” value is -1.94.

As for G36A A43C C115A, the “polymerase ribozyme fitness (log ratio)” value is -3.76.

Consider C34U C97U, for which the “polymerase ribozyme fitness (log ratio)” value is -4.85.

Regarding G35A C73G C80A A121G, the “polymerase ribozyme fitness (log ratio)” value is -6.83.

In the case of G36U G58C G71C A91U G120U, the “polymerase ribozyme fitness (log ratio)” value was -4.22.

On to A37G U78A C82G A119U, for which the “polymerase ribozyme fitness (log ratio)” value is -0.542.

As for G36C C86U, the “polymerase ribozyme fitness (log ratio)” value is -1.65.

As for G36C C86A, the “polymerase ribozyme fitness (log ratio)” value is -1.45.

Turning to A37U G48U G60A C82G A121U, the “polymerase ribozyme fitness (log ratio)” value is 1.39.

G36U U78C C101U C123A: the “polymerase ribozyme fitness (log ratio)” value is -1.09.

Regarding A37C G60U C101G, the “polymerase ribozyme fitness (log ratio)” value was -1.57.

For the variant A37U C56G, the “polymerase ribozyme fitness (log ratio)” value is -1.11.

In the case of G36U G120C, the “polymerase ribozyme fitness (log ratio)” value is 0.124.

Turning to G36U G120U, the “polymerase ribozyme fitness (log ratio)” value is 0.153.

As for A37U G48A C97U G110U U125C, the “polymerase ribozyme fitness (log ratio)” value was -6.59.

As to C34G G48U G122A, the “polymerase ribozyme fitness (log ratio)” value was -7.95.

Turning to G36A A43U C62U G113A, the “polymerase ribozyme fitness (log ratio)” value is -3.5.

With A37U G52U, the “polymerase ribozyme fitness (log ratio)” value is -1.37.

Take A37C U54G G57A: the “polymerase ribozyme fitness (log ratio)” value was -1.35.

C34U C56A: the “polymerase ribozyme fitness (log ratio)” value is -5.06.

Take G36A G45C C114A: the “polymerase ribozyme fitness (log ratio)” value is -3.75.

With A37C C40U U55C A91C, the “polymerase ribozyme fitness (log ratio)” value is -3.28.

With G35U G69A U81C G113U, the “polymerase ribozyme fitness (log ratio)” value was -6.53.

With C34U G52U U87G U112A G135C, the “polymerase ribozyme fitness (log ratio)” value is -5.16.

With G35A C64A C114G U125G, the “polymerase ribozyme fitness (log ratio)” value was -7.35.

Turning to G36U U112A, the “polymerase ribozyme fitness (log ratio)” value was 0.888.

Regarding G36C U54G C73A, the “polymerase ribozyme fitness (log ratio)” value was -2.09.

In the case of G36U C97A, the “polymerase ribozyme fitness (log ratio)” value is -0.428.

For C34U G36U G61A C97G A119G, the “polymerase ribozyme fitness (log ratio)” value was -3.91.

Take G35U G44A U67C A105G U112A: the “polymerase ribozyme fitness (log ratio)” value is -6.79.

Take G36A G42C C76G: the “polymerase ribozyme fitness (log ratio)” value is -2.73.

Regarding A37U C82G, the “polymerase ribozyme fitness (log ratio)” value was -0.955.

On to A37U G71A, for which the “polymerase ribozyme fitness (log ratio)” value is -1.12.

For the variant G36A G48U C56U U112A G117U G120U G127C U133A, the “polymerase ribozyme fitness (log ratio)” value is -6.88.

Take G36A C89U C94G C114U: the “polymerase ribozyme fitness (log ratio)” value was -5.66.

G35C G93A: the “polymerase ribozyme fitness (log ratio)” value was -4.92.

With G35A C88U C99A, the “polymerase ribozyme fitness (log ratio)” value is -5.74.

For the variant C34U C64U C88U, the “polymerase ribozyme fitness (log ratio)” value was -4.34.

With G35C C88U, the “polymerase ribozyme fitness (log ratio)” value is -4.03.

Consider G36A C56A G61A, for which the “polymerase ribozyme fitness (log ratio)” value is -2.16.

In the case of G36U A111G U133G, the “polymerase ribozyme fitness (log ratio)” value is -2.38.

As for G36C G61U C70G C80U U81A C88U C104A C114G, the “polymerase ribozyme fitness (log ratio)” value is -6.29.

As to A37C A41G C53A C88U, the “polymerase ribozyme fitness (log ratio)” value was -0.41.

Turning to A37U G63C A68U U78A U106A, the “polymerase ribozyme fitness (log ratio)” value is -5.67.

Take C34U C124U: the “polymerase ribozyme fitness (log ratio)” value was -2.06.

For C34U C124A, the “polymerase ribozyme fitness (log ratio)” value was -2.31.

As for G35A G47A G57U, the “polymerase ribozyme fitness (log ratio)” value was -3.97.

As for G36U G48U, the “polymerase ribozyme fitness (log ratio)” value is -2.23.

Regarding G36U G48A, the “polymerase ribozyme fitness (log ratio)” value is -1.52.

With A37G G44C G48U C73A, the “polymerase ribozyme fitness (log ratio)” value is -2.25.

Regarding G36U C86A, the “polymerase ribozyme fitness (log ratio)” value is -1.1.

Take A37G C72U C88G C104U G113A: the “polymerase ribozyme fitness (log ratio)” value was -4.89.

Take C34U G69U: the “polymerase ribozyme fitness (log ratio)” value was -0.765.

As to A37G G47C C64U U87A G120C C124G, the “polymerase ribozyme fitness (log ratio)” value was -3.3.

As to G36C C53A C115U U116G, the “polymerase ribozyme fitness (log ratio)” value was -4.36.

With G35U C73G, the “polymerase ribozyme fitness (log ratio)” value was -5.75.

In the case of A37U A41C U55C U87G C88U, the “polymerase ribozyme fitness (log ratio)” value is -2.92.

On to G36A G45C G58C C64G G117U, for which the “polymerase ribozyme fitness (log ratio)” value was -6.11.
